The term stoichiometry N denotes the number of molecules, sites or subunits per partner or assembly.

Results on five molecules are retold here after paper PMC9627735 (RSC Chemical Biology, 2022).

Data set [1] concerns the target recombinant human wildtype Bri2 BRICHOS (human) (UniProt Q9Y287). Nature of the data set: SEC; rh Bri2 BRICHOS at pH 6.0, 20 mmol L^-1 NaPi, 0.2 mmol L^-1 EDTA (ESI Fig. S2c, d); monomer to dimer.
The target is the same in data set [2]. Nature of the data set: SEC; rh Bri2 BRICHOS wildtype and D148N at rising concentrations, 0.5 to 200 μmol L^-1 (ESI Fig. S2a, b, S3, S4); monomer to dimer.
Data set [3] deals with the molecule itself. The data set is described as follows: other fluorescence titration; Trp fluorescence of rh Bri2 BRICHOS T206W monomers, 2 μmol L^-1, 20 mmol L^-1 NaPi, 0.2 mmol L^-1 EDTA, pH 6.3-8.0; excitation 280 nm; monomer to dimer.
Data set [4] concerns the molecule itself. Nature of the data set: SEC; rh Bri2 BRICHOS species obtained by thrombin cleavage of isolated NT*-Bri2 BRICHOS species; Superdex 200 PG, 200 GL or 75 PG; 20 mmol L^-1 NaPi, 0.2 mmol L^-1 EDTA. On the technique in general: Size exclusion chromatography separates by hydrodynamic size, large species first.
Data set [5] concerns the molecule itself. Nature of the data set: SEC; rh Bri2 BRICHOS wildtype and D148N at rising concentrations, 0.5 to 200 μmol L^-1 (ESI Fig. S2a, b, S3, S4); monomer to dimer.
Data set [6] concerns the molecule itself. Nature of the data set: SEC; purified rh proSP-C BRICHOS variants on Superdex 200 GL.

With “recombinant human wildtype Bri2 BRICHOS (from UniProt Q9Y287 113-231) (domain or fragment)”, the stoichiometry N in data set [1] and in data set [2] was 2 in each case.

B1: recombinant human Bri2 BRICHOS T206W (domain or fragment, UniProt Q9Y287 113-231, looked up)
chain: QTIEENIKIFEEEEVEFISVPVPEFADSDPANIVHDFNKKLTAYLDLNLDKCYVIPLNTSIVMPPRNLLELLINIKAGTYLPQSYLIHEHMVIWDRIENIDHLGFFIYRLCHDKETYKL
notes: integral membrane protein 2B (ITM2B, Bri2), human, BRICHOS domain, residues 113-231, with Thr206 replaced by Trp; also called rh Bri2 BRICHOS T206W; source: E. coli SHuffle T7, purified (Ni-NTA, thrombin cleavage, second Ni-NTA, SEC); not shown: His6, N-terminal, cleaved; NT*, N-terminal, cleaved
B1: in data set [3], the binding result is listed as “binds”.

B2: recombinant human Bri2 BRICHOS D148N (domain or fragment, UniProt Q9Y287 113-231, looked up)
chain: QTIEENIKIFEEEEVEFISVPVPEFADSDPANIVHNFNKKLTAYLDLNLDKCYVIPLNTSIVMPPRNLLELLINIKAGTYLPQSYLIHEHMVITDRIENIDHLGFFIYRLCHDKETYKL
notes: integral membrane protein 2B (ITM2B, Bri2), human, BRICHOS domain, residues 113-231, with D148N; Occurs as monomers, dimers and large oligomers, isolated by SEC; all species are this one construct; also called rh Bri2 BRICHOS D148N; source: E. coli SHuffle T7, purified (Ni-NTA, thrombin cleavage, second Ni-NTA, SEC); not shown: His6, N-terminal, cleaved; NT*, N-terminal, cleaved
For the molecule B2, the “stoichiometry N” value in data set [4] was 2. Also, the “ratio of dimers to monomers at 0.5 μmol L^-1” value in data set [5] is roughly 1.

B3: recombinant human wildtype proSP-C BRICHOS (domain or fragment, UniProt P11686 86-197, looked up)
chain: EHLVTTATFSIGSTGLVVYDYQQLLIAYKPAPGTCCYIMKIAPESIPSLEALTRKVHNFQMECSLQAKPAVPTSKLGQAEGRDAGSAPSGGDPAFLGMAVSTLCGEVPLYYI
notes: prosurfactant protein C (proSP-C), human, BRICHOS domain, residues 86-197; Forms trimers and some monomers on SEC; also called rh wildtype proSP-C BRICHOS; wt proSP-C BRICHOS; source: E. coli Origami 2 (DE3) pLysS, purified (Ni-NTA, ion exchange); not shown: thioredoxin, N-terminal, cleaved
With B3, the “stoichiometry N” value in data set [6] came to 3.

B4: recombinant human proSP-C BRICHOS D105N (domain or fragment, UniProt P11686 86-197, looked up)
chain: EHLVTTATFSIGSTGLVVYNYQQLLIAYKPAPGTCCYIMKIAPESIPSLEALTRKVHNFQMECSLQAKPAVPTSKLGQAEGRDAGSAPSGGDPAFLGMAVSTLCGEVPLYYI
notes: prosurfactant protein C (proSP-C), human, BRICHOS domain, residues 86-197, with D105N; Made by site-directed mutagenesis of the wildtype plasmid; expressed and purified in parallel with the wildtype; also called rh proSP-C BRICHOS D105N; D105N mutant; source: E. coli Origami 2 (DE3) pLysS, purified (Ni-NTA, ion exchange); not shown: thioredoxin, N-terminal, cleaved
Regarding B4, the “stoichiometry N” value in data set [6] was 3.
